From article PMC9643438

Legend:
Cys273 = Cys273 (UniProt position 273, KHPWICQRSTV); test: chemical modification (iodoacetamide alkylation) with mass spectrometry readout; settings: purified, reduced, native CaMKIIdelta; presence of Ca2+/calmodulin not stated
Cys290 = Cys290 (UniProt position 290, QETVDCLKKFN); test: as above; settings: purified, reduced, native CaMKIIdelta; presence of Ca2+/calmodulin not stated

Row | Substance | pKa (Cys273) | pKa (Cys290)
1 | Calcium/calmodulin-dependent protein kinase II delta (CaMKIIdelta), 'Cys273' mutant (Homo sapiens; C7S;C290S;C481S) | 7.4 | 
2 | Calcium/calmodulin-dependent protein kinase II delta (CaMKIIdelta), 'Cys290' mutant (Homo sapiens; C7S;C273S;C481S) |  | 9.7
